In PMC11947611, “Functional and structural characterization of Staphylococcus aureus N‐acetylglucosamine 1‐phosphate uridyltransferase (GlmU) reveals a redox‐sensitive acetyltransferase activity” (Protein Science : A Publication of the Protein Society, 2025):

Target: the molecule itself
Experiment: crystal structure; cocrystals of WT SaGlmU with AcCoA and citrate (PDB 9DQF) and with UTP, CoA and Glc 1-P (PDB 9DR4); reducing conditions, 0.5 mM DTT; 200 mM lithium citrate tribasic tetrahydrate, 15-20% PEG 3350; one monomer in the asymmetric unit, trimer assembly

B1: Staphylococcus aureus N-acetylglucosamine 1-phosphate uridyltransferase (GlmU), wild type (enzyme, Staphylococcus aureus NCTC 8325)
chain: MRRHAIILAAGKGTRMKSKKYKVLHEVAGKPMVEHVLESVKGSGVDQVVTIVGHGAESVKGHLGERSLYSFQEEQLGTAHAVQMAKSHLEDKEGTTIVVCGDTPLITKETLVTLIAHHEDANAQATVLSASIQQPYGYGRIVRNASGRLERIVEEKDATQAEKDINEISSGIFAFNNKTLFEKLTQVKNDNAQGEYYLPDVLSLILNDGGIVEVYRTNDVEEIMGVNDRVMLSQAEKAMQRRTNHYHMLNGVTIIDPDSTYIGPDVTIGSDTVIEPGVRINGRTEIGEDVVIGQYSEINNSTIENGACIQQSVVNDASVGANTKVGPFAQLRPGAQLGADVKVGNFVEIKKADLKDGAKVSHLSYIGDAVIGERTNIGCGTITVNYDGENKFKTIVGKDSFVGCNVNLVAPVTIGDDVLVAAGSTITDDVPNDSLAVARARQTTKEGYRK
notes: GlmU of Staphylococcus aureus NCTC 8325; the glmU gene was amplified by PCR from genomic DNA; the domains described in the structure span Res. 1-228 (uridyltransferase), 229-251 (linker) and 252-450 (acetyltransferase); Plasmid 6xHis-SaGlmU-pET-16b (NcoI/BamHI); No removal of the tag is described; By intact mass the N-terminal methionine is removed; also called SaGlmU; WT SaGlmU
stoichiometry N: 3
